Laboratory results as given in article PMC4011913.

What was measured:
Experiment in all cases: SPR
[1] = molecular target: humanized IgG1 anti-herpes simplex virus glycoprotein D antibody, wild type (human)
[2] = molecular target: humanized anti-gD IgG1 variant H310Q (human)
[3] = molecular target: humanized anti-gD IgG1 variant T307Q/N434A (human)

“Soluble murine FcRn (neonatal Fc receptor) (from UniProt Q61559 22-297)” was tested, and the Kd [1] was 0.601 µM, the koff [1] was 0.0037 s⁻¹ and the kon [1] was 6160 M⁻¹ s⁻¹. The Kd [2] was 93 µM, the koff [2] was 0.115 s⁻¹ and the kon [2] was 1230 M⁻¹ s⁻¹. For the same substance, the Kd [3] was 0.108 µM, the koff [3] was 0.0021 s⁻¹ and the kon [3] was 19100 M⁻¹ s⁻¹.
